Tests used:
Test in all cases: cell-based or functional assay
[1] = molecular target: T1, human GIP receptor (human) (UniProt P48546)
T1 sequence (looked up): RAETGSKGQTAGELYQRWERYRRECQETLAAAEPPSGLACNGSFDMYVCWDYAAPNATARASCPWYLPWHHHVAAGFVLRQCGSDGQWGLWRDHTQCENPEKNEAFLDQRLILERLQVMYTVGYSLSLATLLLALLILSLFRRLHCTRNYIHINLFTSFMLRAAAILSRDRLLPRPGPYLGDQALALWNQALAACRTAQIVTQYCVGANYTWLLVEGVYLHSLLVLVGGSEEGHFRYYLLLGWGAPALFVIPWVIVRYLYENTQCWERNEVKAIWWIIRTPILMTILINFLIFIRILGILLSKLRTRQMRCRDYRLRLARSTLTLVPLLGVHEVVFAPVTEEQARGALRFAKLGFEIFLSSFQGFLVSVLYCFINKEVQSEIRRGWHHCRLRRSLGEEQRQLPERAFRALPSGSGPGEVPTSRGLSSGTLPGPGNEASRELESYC

[2] = molecular target: human glucagon receptor (human) (UniProt P47871)
[3] = molecular target: hGLP-1R (Homo sapiens, UniProt P43220)
[4] = molecular target: human glucagon receptor (human, UniProt P47871 26-477)
[5] = molecular target: T2, human GIP receptor (human, UniProt P48546 22-466)
T2 sequence (looked up): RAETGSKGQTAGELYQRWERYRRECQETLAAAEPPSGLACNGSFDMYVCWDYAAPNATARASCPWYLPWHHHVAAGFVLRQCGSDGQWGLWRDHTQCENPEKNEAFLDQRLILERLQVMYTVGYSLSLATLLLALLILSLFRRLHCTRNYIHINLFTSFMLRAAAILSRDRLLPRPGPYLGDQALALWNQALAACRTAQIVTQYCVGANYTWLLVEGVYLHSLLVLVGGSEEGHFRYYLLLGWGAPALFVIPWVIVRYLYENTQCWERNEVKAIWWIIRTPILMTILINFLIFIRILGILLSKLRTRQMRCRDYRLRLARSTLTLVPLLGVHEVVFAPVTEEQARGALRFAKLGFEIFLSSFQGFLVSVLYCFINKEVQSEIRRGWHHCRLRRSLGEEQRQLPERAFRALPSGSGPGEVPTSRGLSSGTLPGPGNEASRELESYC

[6] = molecular target: human GLP-1 receptor (human, UniProt P43220 24-463)

Sequence of human glucagon receptor (P47871 26-477): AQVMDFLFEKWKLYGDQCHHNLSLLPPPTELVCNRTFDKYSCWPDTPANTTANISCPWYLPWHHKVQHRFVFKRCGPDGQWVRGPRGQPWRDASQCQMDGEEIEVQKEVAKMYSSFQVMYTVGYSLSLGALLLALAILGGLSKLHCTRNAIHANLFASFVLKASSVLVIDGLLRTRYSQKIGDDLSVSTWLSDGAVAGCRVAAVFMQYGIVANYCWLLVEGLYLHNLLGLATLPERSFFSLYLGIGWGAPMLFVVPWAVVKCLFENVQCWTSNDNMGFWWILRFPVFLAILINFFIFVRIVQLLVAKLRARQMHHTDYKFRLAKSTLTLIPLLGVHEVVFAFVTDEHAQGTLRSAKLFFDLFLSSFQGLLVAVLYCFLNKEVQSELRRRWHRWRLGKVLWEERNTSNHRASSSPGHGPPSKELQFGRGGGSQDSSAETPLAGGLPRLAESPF

B1: Example 374 (peptide)
peptide: YXEGTXTSDYXIXLDXKAQXEFIXXLIEGGPSSGAPPPSK
modifications: Y-Aib-EGT-αMeF(2F)-TSDY-Aib-I-αMeL-LD-Orn-K((2-[2-(2-Amino-ethoxy)-ethoxy]-acetyl)-(γ-Glu)-(10-(4-carboxyphenoxy)decanoyl))AQ-Aib-EFI-(D-Glu)-αMeY-LIEGGPSSGAPPPSK((2-[2-(2-Amino-ethoxy)-ethoxy]-acetyl)-(γ-Glu)-(10-(4-carboxyphenoxy)decanoyl))-NH2
cAMP EC50 [1]: 0.0135 nM
cAMP Emax [1]: 96.2%
cAMP EC50 [2]: > 9950 nM
cAMP EC50 [3]: 0.269 nM
cAMP Emax [3]: 106%
cAMP EC50 (1.0% HSA) [4]: > 9950 nM
cAMP EC50 (1.0% HSA) [5]: 1.96 nM
cAMP Emax (1.0% HSA) [5]: 88.8%
cAMP EC50 (1.0% HSA) [6]: 39.7 nM

B2: Example 377 (peptide)
peptide: YXEGTXTSDYXIXLDXIAQXKFIXXLIEGGPSSGAPPPSK
modifications: Y-Aib-EGT-αMeF(2F)-TSDY-Aib-I-αMeL-LD-Orn-IAQ-Aib-K((2-[2-(2-Amino-ethoxy)-ethoxy]-acetyl)-(γ-Glu)-(10-(4-carboxyphenoxy)decanoyl))FI-(D-Glu)-αMeY-LIEGGPSSGAPPPSK((2-[2-(2-Amino-ethoxy)-ethoxy]-acetyl)-(γ-Glu)-(10-(4-carboxyphenoxy)decanoyl))-NH2
cAMP EC50 [1]: 0.0205 nM
cAMP Emax [1]: 92.8%
cAMP EC50 [2]: > 9950 nM
cAMP EC50 [3]: 0.356 nM
cAMP Emax [3]: 100%
cAMP EC50 (1.0% HSA) [4]: > 9950 nM
cAMP EC50 (1.0% HSA) [5]: 17.5 nM
cAMP Emax (1.0% HSA) [5]: 79.4%
cAMP EC50 (1.0% HSA) [6]: 178 nM
cAMP Emax (1.0% HSA) [6]: 110%

B3: Example 366 (peptide)
peptide: YXEGTXTSDYXIXLDXKAQXKFIXXLIEGGPSSGAPPPS
modifications: Y-Aib-EGT-αMeF(2F)-TSDY-Aib-I-αMeL-LD-Orn-K((2-[2-(2-Amino-ethoxy)-ethoxy]-acetyl)-(γ-Glu)-CO-(CH2)12-CO2H)AQ-Aib-K((2-[2-(2-Amino-ethoxy)-ethoxy]-acetyl)-(γ-Glu)-CO-(CH2)12-CO2H)FI-(D-Glu)-αMeY-LIEGGPSSGAPPPS-NH2
cAMP EC50 [1]: 0.0162 nM
cAMP Emax [1]: 108%
cAMP EC50 [2]: > 9950 nM
cAMP EC50 [3]: 0.279 nM
cAMP Emax [3]: 89.6%
cAMP EC50 (1.0% HSA) [4]: > 9950 nM
cAMP EC50 (1.0% HSA) [5]: 3.14 nM
cAMP Emax (1.0% HSA) [5]: 95.9%
cAMP EC50 (1.0% HSA) [6]: 96.2 nM

B4: Example 372 (peptide)
peptide: YXEGTXTSDYXIXLDXKAQXKFIXXLIEGGPSSGAPPPS
modifications: Y-Aib-EGT-αMeF(2F)-TSDY-Aib-I-αMeL-LD-Orn-K((2-[2-(2-Amino-ethoxy)-ethoxy]-acetyl)-(γ-Glu)-(10-(4-carboxyphenoxy)decanoyl))AQ-Aib-K((2-[2-(2-Amino-ethoxy)-ethoxy]-acetyl)-(γ-Glu)-(10-(4-carboxyphenoxy)decanoyl))FI-(D-Glu)-αMeY-LIEGGPSSGAPPPS-NH2
cAMP EC50 [1]: 0.0112 nM
cAMP Emax [1]: 97.3%
cAMP EC50 [2]: > 9950 nM
cAMP EC50 [3]: 0.291 nM
cAMP Emax [3]: 108%
cAMP EC50 (1.0% HSA) [4]: > 9950 nM
cAMP EC50 (1.0% HSA) [5]: 3.75 nM
cAMP Emax (1.0% HSA) [5]: 90.6%
cAMP EC50 (1.0% HSA) [6]: 38 nM

B5: Example 386 (peptide)
peptide: YXEGTXTSDVXIXLDXKAQXKFIXXLIEGGPSSGAPPPS
modifications: Y-Aib-EGT-αMeF(2F)-TSDV-Aib-I-αMeL-LD-Orn-K((2-[2-(2-Amino-ethoxy)-ethoxy]-acetyl)2-CO-(CH2)12-CO2H)AQ-Aib-K((2-[2-(2-Amino-ethoxy)-ethoxy]-acetyl)2-CO-(CH2)12-CO2H)FI-(D-Glu)-αMeY-LIEGGPSSGAPPPS-NH2
cAMP EC50 [1]: 0.0174 nM
cAMP Emax [1]: 95.7%
cAMP EC50 [2]: > 9950 nM
cAMP EC50 [3]: 0.194 nM
cAMP Emax [3]: 98.9%
cAMP EC50 (1.0% HSA) [4]: > 9950 nM
cAMP EC50 (1.0% HSA) [5]: 2.08 nM
cAMP Emax (1.0% HSA) [5]: 81.3%
cAMP EC50 (1.0% HSA) [6]: 17.7 nM

B6: Example 376 (peptide)
peptide: YXEGTXTSDYXIXLDXIAQXKFIXXLIKGGPSSGAPPPS
modifications: Y-Aib-EGT-αMeF(2F)-TSDY-Aib-I-αMeL-LD-Orn-IAQ-Aib-K((2-[2-(2-Amino-ethoxy)-ethoxy]-acetyl)-(γ-Glu)-(10-(4-carboxyphenoxy)decanoyl))FI-(D-Glu)-αMeY-LIK((2-[2-(2-Amino-ethoxy)-ethoxy]-acetyl)-(γ-Glu)-(10-(4-carboxyphenoxy)decanoyl))GGPSSGAPPPS-NH2
cAMP EC50 [1]: 0.0281 nM
cAMP Emax [1]: 99.8%
cAMP EC50 [2]: > 9950 nM
cAMP EC50 [3]: 0.539 nM
cAMP Emax [3]: 104%
cAMP EC50 (1.0% HSA) [4]: > 9950 nM
cAMP EC50 (1.0% HSA) [5]: 39.6 nM
cAMP Emax (1.0% HSA) [5]: 88.3%
cAMP EC50 (1.0% HSA) [6]: 419 nM
cAMP Emax (1.0% HSA) [6]: 121%

B7: Example 385 (peptide)
peptide: YXEGTXTSDYXIXLDXKAQXKFIXXLIEGGPSSGAPPPS
modifications: Y-Aib-EGT-αMeF(2F)-TSDY-Aib-I-αMeL-LD-Orn-K((2-[2-(2-Amino-ethoxy)-ethoxy]-acetyl)2-CO-(CH2)12-CO2H)AQ-Aib-K((2-[2-(2-Amino-ethoxy)-ethoxy]-acetyl)2-CO-(CH2)12-CO2H)FI-(D-Glu)-αMeY-LIEGGPSSGAPPPS-NH2
cAMP EC50 [1]: 0.0154 nM
cAMP Emax [1]: 95.2%
cAMP EC50 [2]: > 9950 nM
cAMP EC50 [3]: 0.189 nM
cAMP Emax [3]: 100%
cAMP EC50 (1.0% HSA) [4]: > 9950 nM
cAMP EC50 (1.0% HSA) [5]: 0.558 nM
cAMP Emax (1.0% HSA) [5]: 83.5%
cAMP EC50 (1.0% HSA) [6]: 10.6 nM
cAMP Emax (1.0% HSA) [6]: 112%

Source: patent publication US20230265151A1, “GIP/GLP1 CO-AGONIST COMPOUNDS” (priority 2020, published 2023)
